Data as given in US12269859B2, “Synthetic immune receptors and methods of use thereof” (Angeles Therapeutics, Inc., priority 2016, dated 2025).

System: target antigen-expressing cell line
Assay: Jurkat NFAT-GFP assay, coculture with target cell lines expressing the respective target antigen (summary Table 10A)
Type: cell-based, human
Set-up: key: The signs +/−, +, 2+ etc. after the name of the cell lines indicate the relative degree of positivity on the Jurkat-NFAT-GFP assay as measured by the % GFP positive cells; +: relative degree of positivity on the Jurkat-NFAT-GFP assay as measured by the % GFP positive cells; 2+: relative degree of positivity on the Jurkat-NFAT-GFP assay as measured by the % GFP positive cells
In short: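 Jurkat cells carrying an NFAT-driven GFP reporter and lentivirally expressing a SIR were cocultured with antigen-bearing target cells (E:T ~1:2) for about 4–18 h. GFP induction read by flow cytometry as % GFP+ cells, scored positive and graded (+/−, +, 2+) against parental Jurkat-NFAT-GFP cells.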

B1: 021517-I01 (protein)
chain: MALPVTALLLPLALLLHAARPLEGKPIPNPLLGLDSTGSGEDLKNVFPPEVAVFEPSKAEIAHTQKATLVCLATGFYPDHVELSWWVNGKEVHSGVCTDPQPLKEQPALNDSRYCLSSRLRVSATFWQNPRNHFRCQVQFYGLSENDEWTQDRAKPVTQIVSAEAWGRADCGITSASYHQGVLSATILYEILLGKATLYAVLVSALVLMAMVKRKDSRGRAKRSGSGATNFSLLKQAGDVEENPGPTSMALPVTALLLPLALLLHAARPQSVVTQPPSVSGAPGQRVTISCTGSSSNIGAGYDVHWYQQLPGTAPKLLIYGNSNRPSGVPDRFSGSKSGTSASLAITGLQAEDEADYYCQSYDSSLSGSYVFGTGTKLTVLGGGGGSGGGGSGGGGSEVQLVETGGNLVQPGASLRLSCAASGFSFSGTAMHWVRQAPGKGLEWVSTISSTGRSTYYRDSVKGRFTISRDNSKNTLYLQMNSLRGEDTAVYYCARVSFDYWGQGTLVTVSSTREQKLISEEDGSGIQNPDPAVYQLRDSKSSDKSVCLFTDFDSQTNVSQSKDSDVYITDKCVLDMRSMDFKSNSAVAWSNKSDFACANAFNNSIIPEDTFFPSSDVPCDVKLVEKSFETDTNLNFQNLSVIGFRILLLKVAGFNLLMTLRLWSSRAKRSGSGVKQTLNFDLLKLAGDVESNPGPSRGHMTEYKPTVRLATRDDVPRAVRTLAAAFADYPATRHTVDPDRHIERVTELQELFLTRVGLDIGKVWVADDGAAVAVWTTPESVEAGAVFAEIGPRMAELSGSRLAAQQQMEGLLAPHRPKEPAWFLATVGVSPDHQGKGLGSAVVLPGVEAAERAGVPAFLETSAPRNLPFYERLGFTVTADVEVPEGPRTWCMTRKPGA
Coculture with L363 cells
  NFAT-GFP ASSAY Positive Cell lines: L363 (+/−)

B2: 101216-Y07 (protein)
chain: MALPVTALLLPLALLLHAARPDIQMTQSPSSLSASVGDRVTITCRASQGISSWLAWYQQKPEKAPKSLIYAASSLQSGVPSRFSGSGSGTDFTLTISSLQPEDFATYYCQQYNSYPPTFGGGTKVEIKLEGKPIPNPLLGLDSTGSGEDLKNVFPPEVAVFEPSKAEIAHTQKATLVCLATGFYPDHVELSWWVNGKEVHSGVCTDPQPLKEQPALNDSRYCLSSRLRVSATFWQNPRNHFRCQVQFYGLSENDEWTQDRAKPVTQIVSAEAWGRADCGITSASYHQGVLSATILYEILLGKATLYAVLVSALVLMAMVKRKDSRGRAKRSGSGATNFSLLKQAGDVEENPGPTSMDWIWRILFLVGAATGAHSFEEVQLVESGGGLVQPGESLRLSCVASGFTFSRYKMNWVRQAPGKGLEWVSYISRSGRDIYYADSVKGRFTISRDNAKNSLYLQMNSLRDEDTAVYYCAGTVTTYYYFGMDVWGHGTTVTVSSTREQKLISEEDGSGIQNPDPAVYQLRDSKSSDKSVCLFTDFDSQTNVSQSKDSDVYITDKCVLDMRSMDFKSNSAVAWSNKSDFACANAFNNSIIPEDTFFPSSDVPCDVKLVEKSFETDTNLNFQNLSVIGFRILLLKVAGFNLLMTLRLWSSRAKRSGSGVKQTLNFDLLKLAGDVESNPGPSRGHMTEYKPTVRLATRDDVPRAVRTLAAAFADYPATRHTVDPDRHIERVTELQELFLTRVGLDIGKVWVADDGAAVAVWTTPESVEAGAVFAEIGPRMAELSGSRLAAQQQMEGLLAPHRPKEPAWFLATVGVSPDHQGKGLGSAVVLPGVEAAERAGVPAFLETSAPRNLPFYERLGFTVTADVEVPEGPRTWCMTRKPGA
modifications: Synthetic Immune Receptor (SIR)
Coculture with H460 cells
  NFAT-GFP ASSAY Positive Cell lines: H460 (+/−), HCT116
Coculture with HCT116 cells
  NFAT-GFP ASSAY Positive Cell lines: (+/−)

B3: 111516-M03 (protein)
chain: MALPVTALLLPLALLLHAARPLEGKPIPNPLLGLDSTGSGEDLKNVFPPEVAVFEPSKAEIAHTQKATLVCLATGFYPDHVELSWWVNGKEVHSGVCTDPQPLKEQPALNDSRYCLSSRLRVSATFWQNPRNHFRCQVQFYGLSENDEWTQDRAKPVTQIVSAEAWGRADCGITSASYHQGVLSATILYEILLGKATLYAVLVSALVLMAMVKRKDSRGRAKRSGSGATNFSLLKQAGDVEENPGPTSMALPVTALLLPLALLLHAARPDIVLTQSPLSLAVSLGQPAIISCKASQSVSFAGTSLMHWYHQKPGQQPRLLIYRASNLEAGVPDRFSGSGSKTDFTLTISPVEAEDAATYYCQQSREYPYTFGGGTKLEIKRGGGGSGGGGSGGGGSQVQLVQSGAEVVKPGASVKISCKASGYTFTGYFMNWVKQSPGQSLEWIGRIHPYDGDTFYNQKFQGKATLTVDKSSNTAHMELLSLTSEDFAVYYCTRYDGSRAMDYWGQGTTVTVSSTREQKLISEEDGSGIQNPDPAVYQLRDSKSSDKSVCLFTDFDSQTNVSQSKDSDVYITDKCVLDMRSMDFKSNSAVAWSNKSDFACANAFNNSIIPEDTFFPSSDVPCDVKLVEKSFETDTNLNFQNLSVIGFRILLLKVAGFNLLMTLRLWSSRAKRSGSGVKQTLNFDLLKLAGDVESNPGPSRGHMTEYKPTVRLATRDDVPRAVRTLAAAFADYPATRHTVDPDRHIERVTELQELFLTRVGLDIGKVWVADDGAAVAVWTTPESVEAGAVFAEIGPRMAELSGSRLAAQQQMEGLLAPHRPKEPAWFLATVGVSPDHQGKGLGSAVVLPGVEAAERAGVPAFLETSAPRNLPFYERLGFTVTADVEVPEGPRTWCMTRKPGA
modifications: Polynucleotide encoding a Synthetic Immune Receptor (SIR)
Coculture with LoVo cells
  NFAT-GFP ASSAY Positive Cell lines: (+/−)
Coculture with SKOV3 cells
  NFAT-GFP ASSAY Positive Cell lines: SKOV3 (+), LoVo

B4: 100615-C06 (protein)
chain: MALPVTALLLPLALLLHAARPDIQMTQSPSSLSASVGDRVTITCRASQGIRNNLAWYQQKPGKAPKRLIYAASNLQSGVPSRFTGSGSGTEFTLIVSSLQPEDFATYYCLQHHSYPLTSGGGTKVELEGKPIPNPLLGLDSTGSGEDLKNVFPPEVAVFEPSKAEIAHTQKATLVCLATGFYPDHVELSWWVNGKEVHSGVCTDPQPLKEQPALNDSRYCLSSRLRVSATFWQNPRNHFRCQVQFYGLSENDEWTQDRAKPVTQIVSAEAWGRADCGITSASYHQGVLSATILYEILLGKATLYAVLVSALVLMAMVKRKDSRGRAKRSGSGATNFSLLKQAGDVEENPGPTSMDWIWRILFLVGAATGAHSFEEVQVLESGGGLVQPGGSLRLSCAASGFTFSSYAMSWVRQAPGKGLEWVSAISGSGGSTNYADSVKGRFTISRDNSKNTLYLQMNSLRAEDTAVYYCAGSSGWSEYWGQGTLVTVSSTREQKLISEEDGSGIQNPDPAVYQLRDSKSSDKSVCLFTDFDSQTNVSQSKDSDVYITDKCVLDMRSMDFKSNSAVAWSNKSDFACANAFNNSIIPEDTFFPSSDVPCDVKLVEKSFETDTNLNFQNLSVIGFRILLLKVAGFNLLMTLRLWSSRAKRSGSGVKQTLNFDLLKLAGDVESNPGPSRGHMTEYKPTVRLATRDDVPRAVRTLAAAFADYPATRHTVDPDRHIERVTELQELFLTRVGLDIGKVWVADDGAAVAVWTTPESVEAGAVFAEIGPRMAELSGSRLAAQQQMEGLLAPHRPKEPAWFLATVGVSPDHQGKGLGSAVVLPGVEAAERAGVPAFLETSAPRNLPFYERLGFTVTADVEVPEGPRTWCMTRKPGA
modifications: Synthetic Immune Receptor (SIR)
Coculture with HeLa (Hela) cells
  NFAT-GFP ASSAY Positive Cell lines: (+/−)
Coculture with LoVo cells
  NFAT-GFP ASSAY Positive Cell lines: LoVo (+/−), HeLa

B5: 111815-E04 (protein)
chain: MALPVTALLLPLALLLHAARPDEFEVQLVESGGGLVQAGGSLRLSCVASGISSSKRNMGWYRQAPGKQRESVATISSGGNKDYTDAVKDRFTISRDTTKNTVYLQMNSLKPEDTAVYYCKIEAGTGWATRRGYTYWGQGTLVTVSSLEGKPIPNPLLGLDSTGSGEDLKNVFPPEVAVFEPSEAEISHTQKATLVCLATGFYPDHVELSWWVNGKEVHSGVCTDPQPLKEQPALNDSRYCLSSRLRVSATFWQNPRNHFRCQVQFYGLSENDEWTQDRAKPVTQIVSAEAWGRADCGFTSESYQQGVLSATILYEILLGKATLYAVLVSALVLMAMVKRKDSRGRAKRSGSGATNFSLLKQAGDVEENPGPTSMDWIWRILFLVGAATGAHSFEVQLVESGGGSVQAGGSLRLSCTTSGRALNMYVMGWFRQAPGNEREFVAATSSSGGSTSYPDSVKGRFTISRDNAKNTVYLQMNSLKPEDTAAYRCAASPYVSTPTMNILEEYRYWGLGTQVTVSSTREQKLISEEDGSGIQNPDPAVYQLRDSKSSDKSVCLFTDFDSQTNVSQSKDSDVYITDKCVLDMRSMDFKSNSAVAWSNKSDFACANAFNNSIIPEDTFFPSPESSCDVKLVEKSFETDTNLNFQNLSVIGFRILLLKVAGFNLLMTLRLWSSRAKRSGSGVKQTLNFDLLKLAGDVESNPGPSRGHMTEYKPTVRLATRDDVPRAVRTLAAAFADYPATRHTVDPDRHIERVTELQELFLTRVGLDIGKVWVADDGAAVAVWTTPESVEAGAVFAEIGPRMAELSGSRLAAQQQMEGLLAPHRPKEPAWFLATVGVSPDHQGKGLGSAVVLPGVEAAERAGVPAFLETSAPRNLPFYERLGFTVTADVEVPEGPRTWCMTRKPGA
modifications: Polynucleotide encoding a Synthetic Immune Receptor (SIR)
Coculture with Bv173 cells
  NFAT-GFP ASSAY Positive Cell lines: (2+)
Coculture with U266 cells
  NFAT-GFP ASSAY Positive Cell lines: U266 (2+), Bv173

B6: 031517-Q04 (protein)
chain: MALPVTALLLPLALLLHAARPLEGKPIPNPLLGLDSTGSGEDLKNVFPPEVAVFEPSKAEIAHTQKATLVCLATGFYPDHVELSWWVNGKEVHSGVCTDPQPLKEQPALNDSRYCLSSRLRVSATFWQNPRNHFRCQVQFYGLSENDEWTQDRAKPVTQIVSAEAWGRADCGITSASYHQGVLSATILYEILLGKATLYAVLVSALVLMAMVKRKDSRGRAKRSGSGATNFSLLKQAGDVEENPGPTSMALPVTALLLPLALLLHAARPQSVVTQPASVSGSPGQSITISCTGTSSDVGGYNYVSWYQQHPGKAPKLMIYDVSKRPSGVSNRFSGSKSGNTASLTISGLQAEDEADYYCSSYTSSSTLVFGGGTKLTVLGGGGGSGGGGSGGGGSEVQLVESGGAFVQPGGSLRLSCAASGFTFSSYAMTWVRQAPGKGLEWVSTISGRGRSTFYADSVKGRFTISRDNSKNTLYLQMNSLRAEDTAVYYCARYYHAGAFDLWGQGTLVTVSSTREQKLISEEDGSGIQNPDPAVYQLRDSKSSDKSVCLFTDFDSQTNVSQSKDSDVYITDKCVLDMRSMDFKSNSAVAWSNKSDFACANAFNNSIIPEDTFFPSSDVPCDVKLVEKSFETDTNLNFQNLSVIGFRILLLKVAGFNLLMTLRLWSSRAKRSGSGVKQTLNFDLLKLAGDVESNPGPSRGHMTEYKPTVRLATRDDVPRAVRTLAAAFADYPATRHTVDPDRHIERVTELQELFLTRVGLDIGKVWVADDGAAVAVWTTPESVEAGAVFAEIGPRMAELSGSRLAAQQQMEGLLAPHRPKEPAWFLATVGVSPDHQGKGLGSAVVLPGVEAAERAGVPAFLETSAPRNLPFYERLGFTVTADVEVPEGPRTWCMTRKPGA
Coculture with L363 cells
  NFAT-GFP ASSAY Positive Cell lines: L363 (+/−)
